In PMC8399232, “Soy Isoflavones Inhibit Both GPIb-IX Signaling and αIIbβ3 Outside-In Signaling via 14-3-3ζ in Platelet” (Molecules, 2021):

Molecular target: T1, integrin β3 (endogenous, platelets) (mouse (endogenous in platelets), UniProt O54890 26-787)
T1 construct: integrin β3 endogenous in platelets, precipitated with an anti-integrin β3 antibody; platelets were prepared from mice; In platelets β3 stands in the integrin αIIbβ3; also called platelet integrin β3; β3 integrin; source: endogenous, platelet lysate (NP-40 lysis buffer)
T1 sequence (looked up): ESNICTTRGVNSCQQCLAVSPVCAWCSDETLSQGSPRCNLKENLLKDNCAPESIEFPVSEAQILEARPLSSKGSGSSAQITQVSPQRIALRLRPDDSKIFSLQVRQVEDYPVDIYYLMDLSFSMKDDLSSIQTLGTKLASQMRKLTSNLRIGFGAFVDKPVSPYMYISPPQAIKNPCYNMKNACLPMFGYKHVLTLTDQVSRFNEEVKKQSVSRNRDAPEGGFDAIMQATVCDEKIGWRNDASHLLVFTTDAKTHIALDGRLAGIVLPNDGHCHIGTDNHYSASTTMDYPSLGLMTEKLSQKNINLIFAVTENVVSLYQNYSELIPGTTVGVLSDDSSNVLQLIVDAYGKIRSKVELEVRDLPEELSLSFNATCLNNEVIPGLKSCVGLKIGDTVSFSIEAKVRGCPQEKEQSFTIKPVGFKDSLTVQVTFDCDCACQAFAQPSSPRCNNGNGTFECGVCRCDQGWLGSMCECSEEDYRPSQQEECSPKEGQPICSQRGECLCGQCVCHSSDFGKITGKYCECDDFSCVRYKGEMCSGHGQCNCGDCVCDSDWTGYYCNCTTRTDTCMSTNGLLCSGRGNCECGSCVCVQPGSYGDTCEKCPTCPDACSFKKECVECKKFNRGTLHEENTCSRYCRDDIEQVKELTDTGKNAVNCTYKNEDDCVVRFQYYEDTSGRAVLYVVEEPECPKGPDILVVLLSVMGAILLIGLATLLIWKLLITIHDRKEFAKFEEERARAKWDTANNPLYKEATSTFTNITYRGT
Assay: co-IP; platelets pretreated with 0.1 % DMSO, 100 μM isoflavones or 3 μM SQ29548, stimulated with 0.04 U/mL thrombin, lysed in NP-40 lysis buffer; precipitated with integrin β3 antibody and protein A magnetic beads overnight at 4 °C; western blot
Conditions: partners not purified

fold increase of co-precipitated 14-3-3ζ on platelet activation against resting platelets: 2.7 fold
B1: 14-3-3ζ (endogenous, platelets) (natural protein, mouse (endogenous in platelets), UniProt P63101 1-245, looked up)
chain: MDKNELVQKAKLAEQAERYDDMAACMKSVTEQGAELSNEERNLLSVAYKNVVGARRSSWRVVSSIEQKTEGAEKKQQMAREYREKIETELRDICNDVLSLLEKFLIPNASQPESKVFYLKMKGDYYRYLAEVAAGDDKKGIVDQSQQAYQEAFEISKKEMQPTHPIRLGLALNFSVFYYEILNSPEKACSLAKTAFDEAIAELDTLSEESYKDSTLIMQLLRDNLTLWTSDTQGDEAEAGEGGEN
notes: 14-3-3ζ endogenous in platelets; platelets were prepared from mice; The methods tell of platelets prepared from wild type and GPIbα deficient mice only; the species is not repeated for the co-immunoprecipitation; source: endogenous, platelet lysate (NP-40 lysis buffer)
